The source of these data is patent US20140309404A1 (Eli Lilly, published 2014).

Assay [1] concerns the target T1, human BMP-6 (human, UniProt P22004 382-513, limits assumed).
T1 sequence: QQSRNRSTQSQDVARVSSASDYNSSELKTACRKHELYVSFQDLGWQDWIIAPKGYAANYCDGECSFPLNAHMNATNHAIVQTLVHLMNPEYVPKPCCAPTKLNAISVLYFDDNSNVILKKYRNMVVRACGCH
The assay can be described thus: cell-based or functional assay.

The target in assay [2] is T1, human BMP-6. Put plainly: SPR (BIAcore), BMP-6 immobilised on CM4 chip, antibody injected, 37 C.
Assay [3] has as its target T2, human BMP-5 (human, UniProt P22003 317-454, limits assumed).
T2 sequence (looked up): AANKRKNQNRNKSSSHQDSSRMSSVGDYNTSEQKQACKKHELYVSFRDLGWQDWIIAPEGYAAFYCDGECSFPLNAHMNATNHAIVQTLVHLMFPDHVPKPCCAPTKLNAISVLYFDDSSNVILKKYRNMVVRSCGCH
Put plainly: SPR (BIAcore), BMP immobilised on CM4 chip, antibody injected, 37 C.

For assay [4], the target named is T3, human BMP-7 (human, UniProt P18075 293-431).
T3 sequence (looked up): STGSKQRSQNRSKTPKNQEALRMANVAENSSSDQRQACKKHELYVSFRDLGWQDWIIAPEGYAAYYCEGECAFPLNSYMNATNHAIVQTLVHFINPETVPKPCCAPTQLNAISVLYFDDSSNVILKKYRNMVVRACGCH
Described as above.

The target in assay [5] is T1, human BMP-6. The assay can be described thus: cell-based or functional assay. This is another data set of the same source.
Assay [6] concerns the target T1, human BMP-6. Put plainly: SPR (BIAcore), ratio of KD against MAB507, 37 C.
The target of assay [7] is T4, rat BMP-6 (rat, UniProt Q04906 368-506, limits assumed).
T4 sequence (looked up): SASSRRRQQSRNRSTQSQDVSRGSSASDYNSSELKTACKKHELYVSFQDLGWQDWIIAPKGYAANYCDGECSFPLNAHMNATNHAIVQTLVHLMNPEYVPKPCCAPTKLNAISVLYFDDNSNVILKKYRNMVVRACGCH
Put plainly: SPR (BIAcore), Fab on rat BMP-6, 37 C.

The target of assay [8] is T1, human BMP-6. Put plainly: SPR (BIAcore), Fab on human BMP-6, 37 C.
In assay [9] the target is T5, Cynomolgus monkey BMP-6 (cynomolgus monkey).
T5 construct: also called Cyno Monkey BMP-6
The assay can be described thus: SPR (BIAcore), Fab on cynomolgus monkey BMP-6, 37 C.

In assay [10] the target is T1, human BMP-6. The assay can be described thus: SPR (BIAcore), Fab on human BMP-6, 37 C. This is another data set of the same source.

B1: Antibody I (antibody, human IgG4 S228P, kappa, F234A L235A, V domains shown)
VH: QVQLVQSGAEVKKPGSSVKVSCKASGYTFTSYAMHWVRQAPGQGLEWMGYINPYNDGTKYNENFKGRVTITADESTSTAYMELSSLRSEDTAVYYCARRPFGNAMDIWGQGTLVTVSS
VL: DIQMTQSPSSLSASVGDRVTITCRSSENIYRNLAWYQQKPGKAPKLLIYAATNLADGVPSRFSGSGSGTDFTLTISSLQPEDFATYYCQGIWGTPLTFGGGTKVEIKR
notes: Engineered antibody with human frameworks and constant regions
For the molecule B1, the “fold potency against MAB507 in inhibition of BMP-6-induced hepcidin promoter luciferase activity” value in [1] was about 22 fold. In assay [2], this molecule yielded a dissociation constant Kd of 0.02 nM, a koff of 4.05e-05 s⁻¹ and an on-rate constant (kon) of 1.73e+06 M⁻¹ s⁻¹. Further, in [3], the binding result is recorded as “no binding (tested: up to 1000 nM antibody)”. Moreover, the binding result in [4] was “no binding (tested: up to 1000 nM antibody)”. The “Geometric Mean IC50 (nM), BMP-6 induced Hep_Luc Assay (hepcidin promoter luciferase, HepProm_Luc cells)” value in assay [5] stood at 0.99 nM. Moreover, the “fold higher affinity than MAB507” value in assay [6] came to 50 fold.

B2: Fab of Antibody I (Fab, V domains shown)
VH: QVQLVQSGAEVKKPGSSVKVSCKASGYTFTSYAMHWVRQAPGQGLEWMGYINPYNDGTKYNENFKGRVTITADESTSTAYMELSSLRSEDTAVYYCARRPFGNAMDIWGQGTLVTVSS
VL: DIQMTQSPSSLSASVGDRVTITCRSSENIYRNLAWYQQKPGKAPKLLIYAATNLADGVPSRFSGSGSGTDFTLTISSLQPEDFATYYCQGIWGTPLTFGGGTKVEIK
notes: These are the variable regions of Antibody I; also called Antibody I Fab
With B2, the Kd was found to be 0.088 nM in [7], 0.09 nM in [8], 0.0796 nM in [9] and 0.0845 nM in [10]. In addition, the koff in assay [7] was 0.0003 s⁻¹; in assay [8], 0.00023 s⁻¹; in [9] it was 0.00028 s⁻¹; in [10] it was 0.00028 s⁻¹. The kon turned out to be 4.1e+06 M⁻¹ s⁻¹ in [7], 2.5e+06 M⁻¹ s⁻¹ in [8], 4.1e+06 M⁻¹ s⁻¹ in assay [9] and 3.7e+06 M⁻¹ s⁻¹ in assay [10].

B3: Antibody II (antibody, human IgG4 S228P, kappa, F234A L235A, V domains shown)
VH: QVQLVQSGAEVKKPGSSVKVSCKASGYTFTSYAMHWVRQAPGQGLEWMGYINPYNRGTKYNENFKGRVTITADESTSTAYMELSSLRSEDTAVYYCARRPFGNAMDIWGQGTLVTVSS
VL: DIQMTQSPSSLSASVGDRVTITCRSSENIYRNLAWYQQKPGKAPKLLIYAATNLADGVPSRFSGSGSGTDFTLTISSLQPEDFATYYCQGIWGTPLTFGGGTKVEIKR
As for B3, the “fold potency against MAB507 in inhibition of BMP-6-induced hepcidin promoter luciferase activity” value in [1] is about 22 fold. The “Geometric Mean IC50 (nM), BMP-6 induced Hep_Luc Assay (hepcidin promoter luciferase, HepProm_Luc cells)” value in assay [5] stood at 0.94 nM.

B4: Fab of Antibody II (Fab, V domains shown)
VH: QVQLVQSGAEVKKPGSSVKVSCKASGYTFTSYAMHWVRQAPGQGLEWMGYINPYNRGTKYNENFKGRVTITADESTSTAYMELSSLRSEDTAVYYCARRPFGNAMDIWGQGTLVTVSS
VL: DIQMTQSPSSLSASVGDRVTITCRSSENIYRNLAWYQQKPGKAPKLLIYAATNLADGVPSRFSGSGSGTDFTLTISSLQPEDFATYYCQGIWGTPLTFGGGTKVEIK
notes: These are the variable regions of Antibody II; also called Antibody II Fab
In [8], B4 showed a Kd of 0.08 nM, a koff of 0.00025 s⁻¹ and a kon of 3e+06 M⁻¹ s⁻¹.
